Experimental data from patent publication US20030118612A1 (MAXYGEN, published 2003).

Molecular target: T1, human G-CSF receptor (human, UniProt Q99062 25-836)
T1 sequence (looked up): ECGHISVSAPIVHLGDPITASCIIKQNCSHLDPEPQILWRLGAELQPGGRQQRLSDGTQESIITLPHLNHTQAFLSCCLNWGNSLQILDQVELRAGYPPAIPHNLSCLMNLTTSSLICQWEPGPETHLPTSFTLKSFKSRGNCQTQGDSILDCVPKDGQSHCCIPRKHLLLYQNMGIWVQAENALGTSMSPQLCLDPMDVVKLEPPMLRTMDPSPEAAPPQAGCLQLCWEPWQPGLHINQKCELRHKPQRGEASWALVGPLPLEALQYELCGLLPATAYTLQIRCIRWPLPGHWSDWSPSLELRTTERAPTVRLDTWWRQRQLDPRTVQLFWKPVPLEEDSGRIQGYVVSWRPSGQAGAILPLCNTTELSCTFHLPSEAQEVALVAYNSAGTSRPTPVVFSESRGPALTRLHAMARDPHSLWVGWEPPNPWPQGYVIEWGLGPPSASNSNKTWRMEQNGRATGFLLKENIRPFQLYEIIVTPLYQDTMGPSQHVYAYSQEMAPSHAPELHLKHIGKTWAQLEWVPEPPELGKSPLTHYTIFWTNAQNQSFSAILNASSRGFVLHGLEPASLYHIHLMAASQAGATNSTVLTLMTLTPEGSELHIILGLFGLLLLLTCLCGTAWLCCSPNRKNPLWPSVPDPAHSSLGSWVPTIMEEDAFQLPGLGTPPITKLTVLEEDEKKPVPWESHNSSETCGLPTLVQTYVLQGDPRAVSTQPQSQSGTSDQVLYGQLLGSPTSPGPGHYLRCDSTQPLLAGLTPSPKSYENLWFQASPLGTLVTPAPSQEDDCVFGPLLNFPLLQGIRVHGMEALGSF
Assay: cell-based or functional assay

Row | Binder | EC50 (% of hG-CSF) non-conjugated | EC50 (% of hG-CSF) conjugated to SPA-PEG 5000
1 | G-CSF variant K16/34R, non-conjugated (ligand) TPLGPASSLPQSFLLRCLEQVRKIQGDGAALQERLCATYKLCHPEELVLLGHSLGIPWAPLSSCPSQALQLAGCLSQLHSGLFLYQGLLQALEGISPELGPTLDTLQLDVADFATTIWQQMEELGMAPALQPTQGAMPAFASAFQRRAGGVLVASHLQSFLEVSYRVLRHLAQP | 100 % of hG-CSF | 
2 | G-CSF variant K16/34/40R S53K conjugated to SPA-PEG 5000 (ligand, SPA-PEG 5000 conjugated to the available PEGylation sites) TPLGPASSLPQSFLLRCLEQVRKIQGDGAALQERLCATYRLCHPEELVLLGHKLGIPWAPLSSCPSQALQLAGCLSQLHSGLFLYQGLLQALEGISPELGPTLDTLQLDVADFATTIWQQMEELGMAPALQPTQGAMPAFASAFQRRAGGVLVASHLQSFLEVSYRVLRHLAQP |  | 0.5 % of hG-CSF
3 | G-CSF variant K16/23/40R, non-conjugated (ligand) TPLGPASSLPQSFLLRCLEQVRRIQGDGAALQEKLCATYRLCHPEELVLLGHSLGIPWAPLSSCPSQALQLAGCLSQLHSGLFLYQGLLQALEGISPELGPTLDTLQLDVADFATTIWQQMEELGMAPALQPTQGAMPAFASAFQRRAGGVLVASHLQSFLEVSYRVLRHLAQP | 50 % of hG-CSF | 
4 | G-CSF variant K16/34/40R L3K, non-conjugated (ligand) TPKGPASSLPQSFLLRCLEQVRKIQGDGAALQERLCATYRLCHPEELVLLGHSLGIPWAPLSSCPSQALQLAGCLSQLHSGLFLYQGLLQALEGISPELGPTLDTLQLDVADFATTIWQQMEELGMAPALQPTQGAMPAFASAFQRRAGGVLVASHLQSFLEVSYRVLRHLAQP | 50 % of hG-CSF | 
5 | G-CSF variant K16/40R conjugated to SPA-PEG 5000 (ligand, SPA-PEG 5000 conjugated to the available PEGylation sites) TPLGPASSLPQSFLLRCLEQVRKIQGDGAALQEKLCATYRLCHPEELVLLGHSLGIPWAPLSSCPSQALQLAGCLSQLHSGLFLYQGLLQALEGISPELGPTLDTLQLDVADFATTIWQQMEELGMAPALQPTQGAMPAFASAFQRRAGGVLVASHLQSFLEVSYRVLRHLAQP |  | 5 % of hG-CSF
6 | G-CSF without N-terminal Histidine tag conjugated to SPA-PEG 5000 (ligand, SPA-PEG 5000 conjugated to the available PEGylation sites) TPLGPASSLPQSFLLKCLEQVRKIQGDGAALQEKLCATYKLCHPEELVLLGHSLGIPWAPLSSCPSQALQLAGCLSQLHSGLFLYQGLLQALEGISPELGPTLDTLQLDVADFATTIWQQMEELGMAPALQPTQGAMPAFASAFQRRAGGVLVASHLQSFLEVSYRVLRHLAQP |  | 0.1 % of hG-CSF
7 | G-CSF variant K16/23/34/40R, non-conjugated (ligand) TPLGPASSLPQSFLLRCLEQVRRIQGDGAALQERLCATYRLCHPEELVLLGHSLGIPWAPLSSCPSQALQLAGCLSQLHSGLFLYQGLLQALEGISPELGPTLDTLQLDVADFATTIWQQMEELGMAPALQPTQGAMPAFASAFQRRAGGVLVASHLQSFLEVSYRVLRHLAQP | 20 % of hG-CSF | 
8 | G-CSF variant K16/34/40R S62K, non-conjugated (ligand) TPLGPASSLPQSFLLRCLEQVRKIQGDGAALQERLCATYRLCHPEELVLLGHSLGIPWAPLKSCPSQALQLAGCLSQLHSGLFLYQGLLQALEGISPELGPTLDTLQLDVADFATTIWQQMEELGMAPALQPTQGAMPAFASAFQRRAGGVLVASHLQSFLEVSYRVLRHLAQP | 10 % of hG-CSF | 
9 | G-CSF variant K16/34/40R, non-conjugated (ligand) TPLGPASSLPQSFLLRCLEQVRKIQGDGAALQERLCATYRLCHPEELVLLGHSLGIPWAPLSSCPSQALQLAGCLSQLHSGLFLYQGLLQALEGISPELGPTLDTLQLDVADFATTIWQQMEELGMAPALQPTQGAMPAFASAFQRRAGGVLVASHLQSFLEVSYRVLRHLAQP | 35 % of hG-CSF | 
10 | G-CSF variant K16/34/40R conjugated to SPA-PEG 5000 (ligand, SPA-PEG 5000 conjugated to the available PEGylation sites) TPLGPASSLPQSFLLRCLEQVRKIQGDGAALQERLCATYRLCHPEELVLLGHSLGIPWAPLSSCPSQALQLAGCLSQLHSGLFLYQGLLQALEGISPELGPTLDTLQLDVADFATTIWQQMEELGMAPALQPTQGAMPAFASAFQRRAGGVLVASHLQSFLEVSYRVLRHLAQP |  | 30 % of hG-CSF
11 | G-CSF variant K16/34/40R S66K, non-conjugated (ligand) TPLGPASSLPQSFLLRCLEQVRKIQGDGAALQERLCATYRLCHPEELVLLGHSLGIPWAPLSSCPKQALQLAGCLSQLHSGLFLYQGLLQALEGISPELGPTLDTLQLDVADFATTIWQQMEELGMAPALQPTQGAMPAFASAFQRRAGGVLVASHLQSFLEVSYRVLRHLAQP | 20 % of hG-CSF | 
12 | G-CSF variant K16/23/34/40R conjugated to SPA-PEG 5000 (ligand, SPA-PEG 5000 conjugated to the available PEGylation sites) TPLGPASSLPQSFLLRCLEQVRRIQGDGAALQERLCATYRLCHPEELVLLGHSLGIPWAPLSSCPSQALQLAGCLSQLHSGLFLYQGLLQALEGISPELGPTLDTLQLDVADFATTIWQQMEELGMAPALQPTQGAMPAFASAFQRRAGGVLVASHLQSFLEVSYRVLRHLAQP |  | 15 % of hG-CSF
13 | G-CSF variant K16/34/40R E46K, non-conjugated (ligand) TPLGPASSLPQSFLLRCLEQVRKIQGDGAALQERLCATYRLCHPEKLVLLGHSLGIPWAPLSSCPSQALQLAGCLSQLHSGLFLYQGLLQALEGISPELGPTLDTLQLDVADFATTIWQQMEELGMAPALQPTQGAMPAFASAFQRRAGGVLVASHLQSFLEVSYRVLRHLAQP | 10 % of hG-CSF | 
14 | G-CSF variant K16/34/40R S53K, non-conjugated (ligand) TPLGPASSLPQSFLLRCLEQVRKIQGDGAALQERLCATYRLCHPEELVLLGHKLGIPWAPLSSCPSQALQLAGCLSQLHSGLFLYQGLLQALEGISPELGPTLDTLQLDVADFATTIWQQMEELGMAPALQPTQGAMPAFASAFQRRAGGVLVASHLQSFLEVSYRVLRHLAQP | 5 % of hG-CSF | 
15 | G-CSF variant K16/34/40R L3K conjugated to SPA-PEG 5000 (ligand, SPA-PEG 5000 conjugated to the available PEGylation sites) TPKGPASSLPQSFLLRCLEQVRKIQGDGAALQERLCATYRLCHPEELVLLGHSLGIPWAPLSSCPSQALQLAGCLSQLHSGLFLYQGLLQALEGISPELGPTLDTLQLDVADFATTIWQQMEELGMAPALQPTQGAMPAFASAFQRRAGGVLVASHLQSFLEVSYRVLRHLAQP |  | 25 % of hG-CSF
16 | G-CSF variant K16/34R conjugated to SPA-PEG 5000 (ligand, SPA-PEG 5000 conjugated to the available PEGylation sites) TPLGPASSLPQSFLLRCLEQVRKIQGDGAALQERLCATYKLCHPEELVLLGHSLGIPWAPLSSCPSQALQLAGCLSQLHSGLFLYQGLLQALEGISPELGPTLDTLQLDVADFATTIWQQMEELGMAPALQPTQGAMPAFASAFQRRAGGVLVASHLQSFLEVSYRVLRHLAQP |  | 10 % of hG-CSF
17 | G-CSF variant K16/23/34R, non-conjugated (ligand) TPLGPASSLPQSFLLRCLEQVRRIQGDGAALQERLCATYKLCHPEELVLLGHSLGIPWAPLSSCPSQALQLAGCLSQLHSGLFLYQGLLQALEGISPELGPTLDTLQLDVADFATTIWQQMEELGMAPALQPTQGAMPAFASAFQRRAGGVLVASHLQSFLEVSYRVLRHLAQP | 50 % of hG-CSF | 
18 | G-CSF variant K16/40R, non-conjugated (ligand) TPLGPASSLPQSFLLRCLEQVRKIQGDGAALQEKLCATYRLCHPEELVLLGHSLGIPWAPLSSCPSQALQLAGCLSQLHSGLFLYQGLLQALEGISPELGPTLDTLQLDVADFATTIWQQMEELGMAPALQPTQGAMPAFASAFQRRAGGVLVASHLQSFLEVSYRVLRHLAQP | 50 % of hG-CSF | 
19 | G-CSF variant K16/23/40R conjugated to SPA-PEG 5000 (ligand, SPA-PEG 5000 conjugated to the available PEGylation sites) TPLGPASSLPQSFLLRCLEQVRRIQGDGAALQEKLCATYRLCHPEELVLLGHSLGIPWAPLSSCPSQALQLAGCLSQLHSGLFLYQGLLQALEGISPELGPTLDTLQLDVADFATTIWQQMEELGMAPALQPTQGAMPAFASAFQRRAGGVLVASHLQSFLEVSYRVLRHLAQP |  | 5 % of hG-CSF
20 | G-CSF variant K16/34/40R E46K conjugated to SPA-PEG 5000 (ligand, SPA-PEG 5000 conjugated to the available PEGylation sites) TPLGPASSLPQSFLLRCLEQVRKIQGDGAALQERLCATYRLCHPEKLVLLGHSLGIPWAPLSSCPSQALQLAGCLSQLHSGLFLYQGLLQALEGISPELGPTLDTLQLDVADFATTIWQQMEELGMAPALQPTQGAMPAFASAFQRRAGGVLVASHLQSFLEVSYRVLRHLAQP |  | 1 % of hG-CSF
21 | G-CSF without N-terminal Histidine tag, non-conjugated (ligand) TPLGPASSLPQSFLLKCLEQVRKIQGDGAALQEKLCATYKLCHPEELVLLGHSLGIPWAPLSSCPSQALQLAGCLSQLHSGLFLYQGLLQALEGISPELGPTLDTLQLDVADFATTIWQQMEELGMAPALQPTQGAMPAFASAFQRRAGGVLVASHLQSFLEVSYRVLRHLAQP | 100 % of hG-CSF | 
22 | G-CSF variant K16/23/34R conjugated to SPA-PEG 5000 (ligand, SPA-PEG 5000 conjugated to the available PEGylation sites) TPLGPASSLPQSFLLRCLEQVRRIQGDGAALQERLCATYKLCHPEELVLLGHSLGIPWAPLSSCPSQALQLAGCLSQLHSGLFLYQGLLQALEGISPELGPTLDTLQLDVADFATTIWQQMEELGMAPALQPTQGAMPAFASAFQRRAGGVLVASHLQSFLEVSYRVLRHLAQP |  | 10 % of hG-CSF
23 | G-CSF variant K16/34/40R S62K conjugated to SPA-PEG 5000 (ligand, SPA-PEG 5000 conjugated to the available PEGylation sites) TPLGPASSLPQSFLLRCLEQVRKIQGDGAALQERLCATYRLCHPEELVLLGHSLGIPWAPLKSCPSQALQLAGCLSQLHSGLFLYQGLLQALEGISPELGPTLDTLQLDVADFATTIWQQMEELGMAPALQPTQGAMPAFASAFQRRAGGVLVASHLQSFLEVSYRVLRHLAQP |  | 0.5 % of hG-CSF
